Results as given in patent US20150368613.

Tested on: Meis1

## MYC-CUL4A
  steady-state levels (immunoblot): the HOX co-factor Meis1 was not subjected to CUL4A-mediated degradation
